Columns and labels:
[1] = system: HT29; assay: cells; conditions: HT29, Day 3
Method: (§1) The in vitro efficacy of ABD and rhArg fusion protein was tested on human colon cancer cell lines. Human colon cancer cell lines (HCT116, LOVO and HT29) were seeded in 96-well plate at densities of 5×10^3 cells/well. After 1 day of incubation, the culture medium was replaced with medium containing different concentrations (2, 0.4, 0.08, 0.016 and 0.0032 U/ml) of N-ABD094-rhArg (SEQ ID NO: 50). MTT assay was conducted at Day 3 [3 days after N-ABD094-rhArg (SEQ ID NO: 50) treatment] to determine the IC50 values. The culture medium was replaced with MTT solution (1 mg/ml) (Invitrogen) and incubated at 37° C. for 4 h. After incubation, MTT solution was replaced with dimethyl sulfoxide (DMSO), and the absorbance at 570 nm was measured with a reference of 650 nm. The cell viability was determined by dividing the absorbance of N-ABD094-rhArg-treated cells by the average absorbance of untreated cells. […] Three independent sets of experiments (n=3) were performed for each cell line.
(§2) MTT assay was conducted at Day 3. Three independent sets of experiments (n=3) were performed for each cell line.
(§3) For drug-combination assay, a non-constant ratio analysis was performed (Hastak et al., 2010, Cancer Res. 70(20):7970-7980). Colon cancer cells were seeded and after 1 day of incubation, the culture medium was replaced with medium containing different concentrations of N-ABD094-rhArg (SEQ ID NO: 50) (2, 0.4, 0.08, 0.016, 0.0032 U/ml) combined with fixed amount of CQ according to its IC50. MTT assay was conducted at Day 3. The combination index (CI) of combined N-ABD094-rhArg (SEQ ID NO: 50) and CQ treatment was analyzed by software CalcuSyn version 2.1. Three independent sets of experiments (n=3) were performed for each cell line.

[2] = system: HCT116; assay: cells; conditions: HCT116, Day 3
Method: as §1, §2, §3

[3] = system: LOVO; assay: cells; conditions: LOVO, Day 3
Method: as §1, §2, §3

[4] = system: plasma arginine; assay: Plasma arginine after single i.p. 500U N-ABD094-rhArg (LC-MS/MS); assay type: in vivo, C57BL/6J male mice
Method: Each time point represents mean±SEM of 5 mice.
Fifty C57BL/6J male mice (10-12 weeks of age) were used in this study. A single dose of 500U N-ABD094-rhArg (SEQ ID NO: 50) was administered to the mouse via i.p. injection. Blood samples were collected from the saphenous vein using heparinized capillary tubes, and were centrifuged at 800×g to obtain plasma.
Following injection, serum was collected at Hour 2, Hour 4, Hour 8, Hour 16, Hour 24 (Day 1) and from Day 2 to Day 12 at 24-hour intervals, and from Day 12 to Day 30 at 72-hour intervals. To strike a balance between the number of animals used and to minimize the effect on results of pharmacokinetics and pharmacodynamics study caused by removal of N-ABD094-rhArg (SEQ ID NO: 50) from the mouse as a consequence of blood collection, mice were divided into 10 groups, with n=5 in each group, and subjected to blood collection at the indicated time-point(s) shown in brackets: Group 1 (Hour 2), Group 2 (Hour 4), Group 3 (Hour 8), Group 4 (Hour 16), Group 5 (Hour 24), Group 6 (Day 2, Day 7, Day 12), Group 7 (Day 3, Day 8, Day 18), Group 8 (Day 4, Day 9, Day 21), Group 9 (Day 5, Day 10, Day 15, Day 24), Group 10 (Day 0, Day 6, Day 11, Day 27, Day 30).

[5] = Treatment of pre-existing HFD-induced obesity (DIO), male mice; assay type: in vivo, C57BL/6J male mice
Source text: After confirming that concurrent treatment with N-ABD094-rhArg (SEQ ID NO: 50) can effectively prevent HFD-induced obesity and associated complications and comorbidities including insulin resistance, glucose intolerance, hyperglycemia, dyslipidemia, hepatic steatosis, chronic inflammation, and whitening of BAT, next, we studied the efficacy of N-ABD094-rhArg (SEQ ID NO: 50) in reducing obesity and reversing these disorders in mice with pre-existing diet-induced obesity (DIO). C57BL/6J male mice were fed a HFD from 5 week old for 12 weeks to induce obesity and associated complications and comorbidities. They were then stratified according to the bodyweight into 2 groups and treated with either 600-700U N-ABD094-rhArg (SEQ ID NO: 50) or saline as vehicle control at 7-day intervals for 12 weeks while continued to be fed the HFD. One group of mice were fed a matched low fat diet (LFD) and injected with saline throughout the study to serve as the lean control of various measurements. Two cohorts, with n=5 in each group, have been separately conducted. Mice were housed in groups of 5. Similar results were obtained in the two independent cohorts. Data of one cohort of mice were presented in Examples 23-28.

IC50 [1]: 0.58 U/ml
IC50 [2]: 0.22 U/ml
IC50 [3]: 0.38 U/ml
B1: N-ABD094-rhArg: albumin binding domain ABD094 fused N-terminally to recombinant human arginase I, SEQ ID NO: 50 (protein)
chain: MHHHHHHDEAVDANSLAEAKEAANAELDSYGVSDFYKRLIDKAKTVEGVEALKDAILAALPSGSNNNNNNGSGGMSAKSRTIGIIGAPFSKGQPRGGVEEGPTVLRKAGLLEKLKEQECDVKDYGDLPFADIPNDSPFQIVKNPRSVGKASEQLAGKVAEVKKNGRISLVLGGDHSLAIGSISGHARVHPDLGVIWVDAHTDINTPLTTTSGNLHGQPVSFLLKELKGKIPDVPGFSWVTPCISAKDIVYIGLRDVDPGEHYILKTLGIKYFSMTEVDRLGIGKVMEETLSYLLGRKKRPIHLSFDVDGLDPSFTPATGTPVVGGLTYREGLYITEEIYKTGLLSGLDIMEVNPSLGKTPEEVTRTVNTAVAITLACFGLAREGNHKPIDYLNPPK
modifications: Mn2+; N-ABD094-rhArg, Synthesized in the Lab
plasma arginine concentration reached within 2 hour after injection ([4]; 500U i.p.): 1 µM
Plasma arginine concentrations (Mean of 5 mice ± SEM) ([4]; Day 2 after i.p. 500U): 0.944 ± 0.007 µM
Plasma arginine concentrations (Mean of 5 mice ± SEM) ([4]; Day 3 after i.p. 500U): 0.965 ± 0.008 µM
Plasma arginine concentrations (Mean of 5 mice ± SEM) ([4]; Day 4 after i.p. 500U): 0.535 ± 0.121 µM
Plasma arginine concentrations (Mean of 5 mice ± SEM) ([4]; Day 5 after i.p. 500U): 0.681 ± 0.043 µM
Plasma arginine concentrations (Mean of 5 mice ± SEM) ([4]; Day 6 after i.p. 500U): 0.896 ± 0.089 µM
Plasma arginine concentrations (Mean of 5 mice ± SEM) ([4]; Day 7 after i.p. 500U): 0.792 ± 0.135 µM
Plasma arginine concentrations (Mean of 5 mice ± SEM) ([4]; Day 8 after i.p. 500U): 0.916 ± 0.079 µM
Plasma arginine concentrations (Mean of 5 mice ± SEM) ([4]; Day 9 after i.p. 500U): 1.224 ± 0.178 µM
Plasma arginine concentrations (Mean of 5 mice ± SEM) ([4]; Day 10 after i.p. 500U): 0.721 ± 0.054 µM
Plasma arginine concentrations (Mean of 5 mice ± SEM) ([4]; Day 11 after i.p. 500U): 3.828 ± 1.511 µM
Plasma arginine concentrations (Mean of 5 mice ± SEM) ([4]; Day 12 after i.p. 500U): 7.607 ± 2.325 µM
Plasma arginine concentrations (Mean of 5 mice ± SEM) ([4]; Day 15 after i.p. 500U): 31.283 ± 4.569 µM
Plasma arginine concentrations (Mean of 5 mice ± SEM) ([4]; Day 18 after i.p. 500U): 48.648 ± 3.989 µM
Plasma arginine concentrations (Mean of 5 mice ± SEM) ([4]; Day 21 after i.p. 500U): 73.55 ± 3.76 µM
Plasma arginine concentrations (Mean of 5 mice ± SEM) ([4]; Day 24 after i.p. 500U): 76.07 ± 4.92 µM
Plasma arginine concentrations (Mean of 5 mice ± SEM) ([4]; Day 27 after i.p. 500U): 111.09 ± 6.21 µM
Plasma arginine concentrations (Mean of 5 mice ± SEM) ([4]; Day 30 after i.p. 500U): 110.91 ± 3.81 µM
Plasma arginine concentrations (Mean of 5 mice ± SEM) ([4]; Hour 2 after i.p. 500U): 1.007 ± 0.013 µM
Plasma arginine concentrations (Mean of 5 mice ± SEM) ([4]; Hour 4 after i.p. 500U): 0.934 ± 0.021 µM
Plasma arginine concentrations (Mean of 5 mice ± SEM) ([4]; Hour 8 after i.p. 500U): 0.912 ± 0.006 µM
Plasma arginine concentrations (Mean of 5 mice ± SEM) ([4]; Hour 16 after i.p. 500U): 0.943 ± 0.010 µM
Plasma arginine concentrations (Mean of 5 mice ± SEM) ([4]; Hour 24 after i.p. 500U): 0.934 ± 0.007 µM
HOMA-IR score ([5]; 4 weeks after treatment (35.1 prior to treatment)): 1.2
Mcp1 and Tgfb expression in pancreas ([5]; 12 weeks): significantly downregulate
Mcp1 expression in perigonadal WAT ([5]; 12 weeks): significantly downregulated
WAT within the pancreas and heart (histology) ([5]; 12 weeks): prominent reduction
amount of collagen fibres in kidney (Sirius red) ([5]; 12 weeks): prominently reduced
anti-inflammatory genes (Il10, Il22, Infg) in liver ([5]; 12 weeks): markedly upregulate
lipid droplets in liver (oil red O) ([5]; 12 weeks): dramatic clearance
liver triglyceride concentrations ([5]; 12 weeks): reduced to a level similar to the lean control
plasma ALT and AST concentrations ([5]; 12 weeks): comparable to the lean control
profibrotic gene Col1a1 in kidney ([5]; 12 weeks): greatly suppressed
profibrotic gene Tgfb in liver ([5]; 12 weeks): restored to a level similar to the lean control
proinflammatory genes (Il1a, Il1b) in liver ([5]; 12 weeks): significantly downregulate
proinflammatory genes (Mcp1, Tnfa, Il1b) in kidney, downregulated to ([5]; 12 weeks): levels similar to the lean control
serum concentrations of Mcp1 ([5]; 12 weeks): corrected to a level similar to the lean control mice
triglyceride concentrations in kidney, pancreas, heart and skeletal muscle ([5]; 12 weeks): restored a level similar to the lean control
vacuoles in renal tubules and lipids in glomeruli (histology) ([5]; 12 weeks): marked reduction
weight of kidney, pancreas and heart ([5]; 12 weeks, to a level similar to lean control): significantly reduce
reduction of bodyweight ([5]; 600-700U at 7-day intervals, by 5 weeks, HFD continued): over 30%
fasting plasma leptin and total cholesterol levels ([5]; 600-700U weekly): markedly reduced to normal levels
adipocyte size in WAT (histology) ([5]; 600-700U weekly, 12 weeks): prominent diminution
weight of fat pad at visceral and subcutaneous depots ([5]; 600-700U weekly, 12 weeks): significantly reduced
mRNA levels of lipogenesis related genes in liver ([5]; 600U weekly, 12 weeks): significantly downregulated
glucose tolerance (GTT) ([5]; by 3 weeks of treatment): significant improvement
fasting blood glucose and plasma insulin ([5]; by 4 weeks of treatment): restored to levels similar to the lean control mice
insulin sensitivity (ITT) ([5]; by 4 weeks of treatment, comparable to lean control): marked increase
glucose tolerance (GTT) ([5]; by 7 weeks of treatment, level similar to lean control): fully restored

Reference: patent US20200181597A1, “Composition and Application of Arginine-depleting Agents for Cancer, Obesity, Metabolic Disorders, and Related Complications and Comorbidities” (THE HONG KONG POLYTECHNIC UNIVERSITY, priority 2018, published 2020)
